Data from paper PMC2841545 (Protein Engineering, Design and Selection, 2010).
Substitutions are numbered along the chain they refer to.

Target: ABL1 SH2 domain (Homo sapiens (clone BC059260 maps to …, UniProt P00519))
Assay: ELISA

ABL1 SH2 domain (Homo sapiens, sequence (P00519 whole entry, looked up, the tested form may be a part): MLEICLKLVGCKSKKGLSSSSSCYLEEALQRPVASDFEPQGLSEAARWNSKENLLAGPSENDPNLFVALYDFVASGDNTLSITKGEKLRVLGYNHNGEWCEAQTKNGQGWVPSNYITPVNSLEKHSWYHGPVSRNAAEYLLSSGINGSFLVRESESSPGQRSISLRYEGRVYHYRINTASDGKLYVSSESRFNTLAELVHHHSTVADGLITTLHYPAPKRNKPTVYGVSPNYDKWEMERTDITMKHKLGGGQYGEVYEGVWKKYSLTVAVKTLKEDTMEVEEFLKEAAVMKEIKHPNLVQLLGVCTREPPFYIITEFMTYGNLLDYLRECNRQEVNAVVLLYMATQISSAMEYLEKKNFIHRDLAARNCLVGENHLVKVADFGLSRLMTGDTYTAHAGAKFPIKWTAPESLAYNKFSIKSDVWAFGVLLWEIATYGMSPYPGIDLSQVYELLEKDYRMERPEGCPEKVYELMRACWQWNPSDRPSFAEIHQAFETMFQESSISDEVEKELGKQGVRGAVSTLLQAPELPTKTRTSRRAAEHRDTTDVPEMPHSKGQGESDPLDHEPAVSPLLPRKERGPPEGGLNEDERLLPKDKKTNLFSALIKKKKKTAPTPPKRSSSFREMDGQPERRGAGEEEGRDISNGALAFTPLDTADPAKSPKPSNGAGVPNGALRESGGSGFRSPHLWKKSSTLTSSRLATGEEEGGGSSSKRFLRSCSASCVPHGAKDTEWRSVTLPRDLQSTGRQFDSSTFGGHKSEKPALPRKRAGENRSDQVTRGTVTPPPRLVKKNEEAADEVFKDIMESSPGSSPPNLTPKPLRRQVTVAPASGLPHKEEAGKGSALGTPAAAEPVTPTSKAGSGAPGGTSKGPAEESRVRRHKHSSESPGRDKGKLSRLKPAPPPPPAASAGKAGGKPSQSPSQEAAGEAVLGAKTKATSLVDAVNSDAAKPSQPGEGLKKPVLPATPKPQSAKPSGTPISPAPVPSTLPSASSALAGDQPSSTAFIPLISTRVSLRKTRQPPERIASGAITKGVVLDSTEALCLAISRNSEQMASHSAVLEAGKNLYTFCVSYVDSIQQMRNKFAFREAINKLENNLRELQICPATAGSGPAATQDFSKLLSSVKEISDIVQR

B1: scFv 43H02 (Group ai, selected on ABL1) (scFv, V domains shown)
VH: EVQLLESGGGLVKPGGSLRLSCAASGFTFDDYAMHWVRQAPGKGLEWVSGISWNSGSIGYADSVKGRFTISRDNAKNSLYLQMNSLRAEDTALYYCAKGGPGIRYPDAFDIWGQGTLVTVSS
VL: not shown
  binding result: binds

B2: scFv 43_E02 (Group aiii, selected on ABL1) (scFv, V domains shown)
VH: B1 VH with K13Q, G16R, L117M
VL: DIQMTQSPSSLSASVGDRVTITCRASQSIRNDLGWYQQKPGKAPKLLIYAASSLQSGVPSRFSGSGSGTDFTLTISSLQPEDFATYYCQQSSSTPITFGGGTKVEIK
  binding result: binds
